Consider one molecule from patent EP4786489A1, “IL-22 MUTANT, PREPARATION METHOD THEREFOR, AND USE THEREOF” (Nanjing Novoacine Biotechnology Co., Ltd., priority 2023, dated 2025).

Series [1] relates to STAT3. The series is described as follows: STAT3 phosphorylation in HaCaT cells by FACS (tissue activation preference). Type of series: cell-based, Human. As to conditions: STAT3 activation in HT29 vs HaCaT cells. On the procedure: Human immortalized keratinocyte HaCaT cells were recovered and cultured in MEM/EBSS medium (Cytiva, SH30024.01) supplemented with 15% FBS and 1% P/S (Cytiva, SV30010). When cell confluence reached 70%-80%, cells were digested with 0.25% Trypsin-EDTA (Gibco, 25200-056), terminated with complete medium, and resuspended to […]. After mixed thoroughly, a total of 120 µL per well cells was seeded into a 96-well plate (Corning, 3599) at a density of 1.5 × 10^5 cells per well and incubated overnight at 37°C with 5% CO2.
wt IL-22 was prepared at an initial working concentration of 1000 nM, and the remaining samples were prepared at 10000 nM as the starting concentration. […] After staining at room temperature in the dark for 1 hour, cells were washed twice with 1× PBS and analyzed by flow cytometry to determine the mean fluorescence intensity (MFI).
Tissue activation preference of different test candidates was evaluated by comparing their ability to activate STAT3 in intestinal-derived HT29 cells and skin-derived HaCaT cells. […] The activity of PEGylated IL-22 mutants in activating STAT3 phosphorylation in HaCaT cells at different concentrations as determined by FACS is shown in Figure 8. […] Tissue preference of PEG-IL22 mutants for STAT3 phosphorylation in human intestinal and human skin cell lines determined by FACS
(Flow cytometry measures light scatter and fluorescence of single cells or particles in a stream.)

Series [2] deals with Reg3β. The series is described as follows: Mouse PD: plasma Reg3β after single administration (ELISA). It counts as in vivo. More on the design: Reg3βCmax: unit not given here. As to conditions: for Reg3βCmax: mouse plasma, wt IL-22 i.p. On the procedure:
The ELISA method was used to determine the baseline levels and post-dose changes of the biomarker Reg3β in plasma samples before and after administration of different test candidates.
For the preferable test candidates, one mouse per dose group was subcutaneously injected at 0.5, 1, or 3 mg/kg. The control molecules were IL-22-Fc, administered subcutaneously at 0.3 and 1 mg/kg, and wt IL-22, administered intraperitoneally at the corresponding doses.
Approximately 40 µL of orbital blood was collected with anticoagulation on the day before dosing and at 4, 24, 48, 96, 144, 192, 264, 336, and 408 hours after dosing, followed by plasma separation. ELISA plates were coated overnight at 4°C with 1 µg/mL anti-Reg3β (Sino Biological, 51153-R065) dissolved in PBS. Mouse Reg3β (Sino Biological, 51153-M08H) was serially diluted to generate a positive control standard curve. Plasma samples were appropriately diluted to fall within the linear range of the standard curve. After blocking, samples were added and incubated for 2 hours. Incubation was then performed with the secondary antibody sheep anti-mouse Reg3β (R&D Systems, AF5110-SP) and HRP-conjugated antibody (HRP-Rabbit anti-sheep IgG H&L, Abcam, Ab97130). After final washing, tetramethylbenzidine peroxidase substrate (TMB, Surmodics, TMBS-1000-01) was added for color development for 10 minutes. The reaction was terminated with 2 M sulfuric acid, and absorbance was read at 450 nm with 630 nm as reference using a microplate reader. The original concentrations of Reg3β in each sample were calculated. Concentration versus time curves were plotted (Figure 9).
A general note: In an ELISA, binding on a coated surface is turned into a signal by an enzyme label.

Series [3] deals with SAA. The series is described as follows: Mouse PD preference study: plasma SAA. It counts as in vivo, mice. Conditions: at equivalent or superior Reg3β Cmax: 60K-PEG-IL22-D109C 0.1 mg/kg vs 60K-PEG-IL22-P120C 0.3 mg/kg vs IL-22-Fc 1 mg/kg, s.c. On the procedure:
Based on the in vitro preference results and preliminary PD screening results, the molecules 60k-PEG-IL22-D109C and 60k-PEG-IL22-P120C were selected. PD testing was performed in three mice per dose group at different dose levels according to the method described in Example 14, including the pharmacodynamic-related molecule Reg3β and the inflammation-related molecule SAA. The control was IL-22-Fc. Blood samples were collected before dosing and at 4, 24, 48, 72, 96, 144, 192, 264, and 336 hours after dosing. Plasma was separated using anticoagulated blood samples. For the control molecules wt IL-22 and hB3-his, samples were collected only up to 96 hours.
The detection method for SAA was as follows: a kit containing detecting antibody pairs and positive controls (Abcam, Ab216059) was used to detect SAA concentrations in appropriately diluted plasma samples. The assay was performed according to the manufacturer's instructions. Sa-HRP (Pierce 21126) was used for conjugation. After washing, tetramethylbenzidine peroxidase substrate (TMB, Surmodics, TMBS-1000-01) was added for color development for 10 minutes. The reaction was terminated with 2 M sulfuric acid, and the plate was read at 450 nm with 630 nm as the reference using a microplate reader. SAA was measured before dosing and at 24, 48, 72, 96, and 144 hours after dosing. The original SAA concentration in each sample was calculated. […]

Series [4] in a line: Mouse PK, plasma concentration by ELISA. It counts as in vivo. As to conditions: single s.c. 1 mg/kg, male Balb/C mice. Here is the method: Male Balb/C mice (n = 4 per group) were administered a single subcutaneous injection at a dose of 1 mg/kg. Blood samples were collected before dosing and at 4 (no samples were collected at this time point for 60k-PEG-IL22-D109C and 60k-PEG-IL22-P120C), 8, 24, […], 48, 72, 96, and 120 hours after dosing. Anticoagulated blood was used to prepare plasma.
The concentrations of each test candidate in plasma were quantified by ELISA. Anti-IL22 Antibody (Sino Biological, 13059-MM24), diluted in PBS to 2 µg/mL, was used for coating. Standard curves of each test candidate and plasma samples were diluted to fall within the linear range of detection. Recombinant Anti-IL22 Antibody (Sino Biological, 13059-R034-H) was used for detection. The original concentration of each test candidate in the samples was calculated using a four-parameter fit of the standard curve for each test candidate. Pharmacokinetic parameters of each test candidate in mouse plasma were analyzed (Figure 12). Table 13. Dosing information for the mouse PK study

B1: 60K-PEG-IL22-D109C: IL-22 cysteine mutant, conjugation site 76, PEG-maleimide 60kD (conjugate)
chain: APISSHCRLDKSNFQQPYITNRTFMLAKEASLADNNTDVRLIGEKLFHGVSMSERCYLMKQVLNFTLEEVLFPQSCRFQPYMQEVVPFLARLSNRLSTCHIEGDDLHIQRNVQKLKDTVKKLGESGEIKAIGELDLLFMSLRNACI
Turning to B1, the “tissue preference compared with IL-22-Fc” value in series [1] was “superior tissue preference”. The “Normalized Cmax ratio of Reg3β (relative to IL-22-Fc)” value in series [2] (0.5mg/kg single dose vs IL-22-Fc 0.3 mg/kg) came to 329%. In series [2] (0.5mg/kg single dose, test candidates s.c., one mouse per dose group), the Reg3βCmax amounted to 52.0. Further, the “Normalized Cmax ratio of Reg3β (relative to IL-22-Fc)” value in series [2] (1mg/kg single dose) stood at 251%. Also, the Reg3βCmax in series [2] (1mg/kg single dose, s.c.) is recorded as 82.9. The Reg3βCmax in series [2] (3mg/kg single dose, s.c.) amounted to 73.4. In series [2] (similar (0.5 mg/kg vs. 0.3 mg/kg) or identical (1 mg/kg) doses), the “peak concentrations of Reg3β stimulation compared with IL-22-Fc” value is given as “higher peak concentrations”. In addition, the “SAA Cmax compared with IL-22-Fc” value in series [3] is recorded as “significantly lower”. For the same molecule, in series [4], the “AUClast” value was determined as 301.5835 µg·h/mL, the peak concentration (Cmax) (usually the peak of the concentration-time curve) is 5460.625 ng/mL, the MRT (commonly the average time that molecules of a dose stay in the body) is given as 41.39 h and the “T1/2” value came to 21.6 h.
